B3: Fc-fused soluble cadherin-6 (extracellular domain of CDH6 fused to the Fc fragment of human IgG1) (Fc fusion)
chain: SWMWNQFFLLEEYTGSDYQYVGKLHSDQDRGDGSLKYILSGDGAGDLFIINENTGDIQATKRLDREEKPVYILRAQAINRRTGRPVEPESEFIIKIHDINDNEPIFTKEVYTATVPEMSDVGTFVVQVTATDADDPTYGNSAKVVYSILQGQPYFSVESETGIIKTALLNMDRENREQYQVVIQAKDMGGQMGGLSGTTTVNITLTDVNDNPPRFPQSTYQFKTPESSPPGTPIGRIKASDADVGENAEIEYSITDGEGLDMFDVITDQETQEGIITVKKLLDFEKKKVYTLKVEASNPYVEPRFLYLGPFKDSATVRIVVEDVDEPPVFSKLAYILQIREDAQINTTIGSVTAQDPDAARNPVKYSVDRHTDMDRIFNIDSGNGSIFTSKLLDRETLLWHNITVIATEINNPKQSSRVPLYIKVLDVNDNAPEFAEFYETFVCEKAKADQLIQTLHAVDKDDPYSGHQFSFSLAPEAASGSNFTIQDNKDNTAGILTRKNGYNRHEMSTYLLPVVISDNDYPVQSSTGTVTVRVCACDHHGNMQSCHAEALIHPTGLSTGA
notes: also called Fc-CDH6; Fc-fused CDH6; not shown: Fc fragment of human IgG1

For experiment [1], the target named is Fc-fused soluble cadherin-18 (extracellular domain of CDH18 fused to the Fc fragment of human IgG1) (human) (UniProt Q13634). The experiment is described as follows: SPR (ProteOn XPR36), Fc-cadherin amine-coupled to GLC chip, GRS as analyte, Langmuir 1:1 model.
For experiment [2], the target named is B3. The experiment is described as follows: GST pull-down with GSH-sepharose, immunoblot for CDH6. On the procedure: (A) A panel of Fc-fused soluble cadherin family proteins was bound to His-tagged GRS or to BSA-coated plates, and complexes were detected with the IgG1 Fc-HRP (Thermo) reagent. (B) To confirm the binding between cadherins and GRS, Fc-CDH2, 6 and 18 were incubated with His-GRS. Fc-CDHs were precipitated with protein A/G agarose and co-precipitated GRS was determined by immunoblotting. (C) To calculate the equilibrium dissociation constant (IQ), immobilized Fc-fused (to gold chips) cadherins were incubated with GRS (31.25 nM˜1 uM). Binding of GRS to CDH6 was determined by surface plasmon resonance and expressed as resonance units (RU). (D) To confirm the binding between CDH6 and GRS domain peptides, Fc-CDH6 was incubated with different domains (F1, 2, 3 and 4) of GRS that were expressed as the GST fusion proteins. GST-GRS proteins were precipitated with GSH-sepharose beads and co-precipitated CDH6 was determined by immunoblotting. (E) Five difference cancers cells were determined for the expression of CDH6 by immunoblotting. (F) HCT116 cells were transfected with non-specific siRNA controls (si-con) or two differently designed siRNAs targeting CDH6 (#1 and #2), treated with biotinylated GRS (15 nM), and the binding of GRS was analyzed by immunoblotting. (G) HCT116 cells were transfected with si-con and si-CDH6 as described above, and cell binding of GRS was measured by FACS analysis. […]
On the technique in general: In western blotting, separated proteins are transferred to a membrane and probed.

The target of experiment [3] is T1, His-tagged recombinant human glycyl-tRNA synthetase (GRS), 685 amino acids (human, UniProt P41250 55-739).
T1 construct: Expressed in E. coli; also called His-GRS; his-tagged GRS; not shown: His tag from vector pET-28a (EcoRI/XhoI)
T1 sequence: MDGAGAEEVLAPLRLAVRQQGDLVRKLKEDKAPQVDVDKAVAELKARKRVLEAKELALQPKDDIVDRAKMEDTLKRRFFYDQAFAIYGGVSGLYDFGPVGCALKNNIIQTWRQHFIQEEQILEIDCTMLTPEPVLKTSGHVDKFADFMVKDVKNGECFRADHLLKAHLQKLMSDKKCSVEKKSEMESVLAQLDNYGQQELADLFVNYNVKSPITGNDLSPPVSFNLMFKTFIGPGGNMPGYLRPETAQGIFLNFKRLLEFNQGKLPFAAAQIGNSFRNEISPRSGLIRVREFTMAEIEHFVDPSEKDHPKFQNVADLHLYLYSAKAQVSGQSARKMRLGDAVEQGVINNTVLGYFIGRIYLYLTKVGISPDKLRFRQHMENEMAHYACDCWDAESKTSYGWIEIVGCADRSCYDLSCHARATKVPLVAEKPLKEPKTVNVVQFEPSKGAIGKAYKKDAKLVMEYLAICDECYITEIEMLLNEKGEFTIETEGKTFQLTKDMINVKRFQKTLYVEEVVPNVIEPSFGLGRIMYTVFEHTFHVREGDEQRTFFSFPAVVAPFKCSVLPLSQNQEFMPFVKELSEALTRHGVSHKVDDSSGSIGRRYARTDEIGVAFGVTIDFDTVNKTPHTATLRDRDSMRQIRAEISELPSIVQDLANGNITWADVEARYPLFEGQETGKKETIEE
The experiment is described as follows: ELISA: plate coated with His-GRS or BSA, Fc-fused cadherin added, detected with anti-human IgG1 Fc-HRP; axis OD 490nm. On the procedure:
(A) A panel of Fc-fused soluble cadherin family proteins was bound to His-tagged GRS or to BSA-coated plates, and complexes were detected with the IgG1 Fc-HRP (Thermo) reagent. (B) To confirm the binding between cadherins and GRS, Fc-CDH2, 6 and 18 were incubated with His-GRS. Fc-CDHs were precipitated with protein A/G agarose and co-precipitated GRS was determined by immunoblotting. (C) To calculate the equilibrium dissociation constant (IQ), immobilized Fc-fused (to gold chips) cadherins were incubated with GRS (31.25 nM˜1 uM). Binding of GRS to CDH6 was determined by surface plasmon resonance and expressed as resonance units (RU). (D) To confirm the binding between CDH6 and GRS domain peptides, Fc-CDH6 was incubated with different domains (F1, 2, 3 and 4) of GRS that were expressed as the GST fusion proteins. GST-GRS proteins were precipitated with GSH-sepharose beads and co-precipitated CDH6 was determined by immunoblotting. (E) Five difference cancers cells were determined for the expression of CDH6 by immunoblotting. (F) HCT116 cells were transfected with non-specific siRNA controls (si-con) or two differently designed siRNAs targeting CDH6 (#1 and #2), treated with biotinylated GRS (15 nM), and the binding of GRS was analyzed by immunoblotting. (G) HCT116 cells were transfected with si-con and si-CDH6 as described above, and cell binding of GRS was measured by FACS analysis. (H) HCT116 cells were incubated with His-GRS (150 nM). To neutralize the effects of GRS, Fc-fused CDH6 (300 nM) was added and the cell viability was determined by the MTT assay. Error bars represent standard deviation. (I) The binding between CDH6 and GRS domain peptides was again confirmed by ELISA assay.
To identifying the receptor of GRS, a Maxisorp plate (Nunc, Rochester, N.Y.) was used for an ELISA detection. The plate were coated with purified his-tagged GRS (1 ug/ml) or BSA (1 ug/ml) in phosphate buffer saline and then blocked (PBS, 4% non-fat milk). Fc-fusion cadherin family proteins (1 ug/ml) were added to the plate and after washing with PBST (0.05% Tween20), the plates were incubated with anti-human IgG1 Fc-HRP (Thermo, Waltham, Mass.). […]
(In an ELISA, binding on a coated surface is turned into a signal by an enzyme label.)

The target of experiment [4] is T1, His-tagged recombinant human …. The experiment is described as follows: SPR (ProteOn XPR36), Fc-cadherin amine-coupled to GLC chip, GRS as analyte, Langmuir 1:1 model. The method, then: Binding of GRS to CDH6 was determined by surface plasmon resonance and expressed as resonance units (RU). (D) To confirm the binding between CDH6 and GRS domain peptides, Fc-CDH6 was incubated with different domains (F1, 2, 3 and 4) of GRS that were expressed as the GST fusion proteins. GST-GRS proteins were precipitated with GSH-sepharose beads and co-precipitated CDH6 was determined by immunoblotting. (E) Five difference cancers cells were determined for the expression of CDH6 by immunoblotting. (F) HCT116 cells were transfected with non-specific siRNA controls (si-con) or two differently designed siRNAs targeting CDH6 (#1 and #2), treated with biotinylated GRS (15 nM), and the binding of GRS was analyzed by immunoblotting. (G) HCT116 cells were transfected with si-con and si-CDH6 as described above, and cell binding of GRS was measured by FACS analysis. […] To neutralize the effects of GRS, Fc-fused CDH6 (300 nM) was added and the cell viability was determined by the MTT assay. […]
Binding of GRS to the cadherin-Fc fusion proteins was determined by the SPR technique using a ProteOn XPR36 Protein Interaction Array System (BioRad). […] The binding was determined by the change in resonance units (RU), where one resonance unit is defined as 1 pg/mm². The Sensogram was processed by subtracting the binding response recorded from the control surface. […]

On to “His-tagged recombinant human glycyl-tRNA synthetase (GRS), 685 amino acids (from UniProt P41250 55-739) (enzyme)”, for which, in experiment [1], the Kd (commonly the constant that tells how readily two partners part at equilibrium) came to 1.25 nM.

B1: GST-fused GRS fragment F4 (C-terminal anticodon-binding domain, 175 amino acids) (other, not shown: a dimerising Fc or GST; small tags and cut ends)
chain: LYVEEVVPNVIEPSFGLGRIMYTVFEHTFHVREGDEQRTFFSFPAVVAPFKCSVLPLSQNQEFMPFVKELSEALTRHGVSHKVDDSSGSIGRRYARTDEIGVAFGVTIDFDTVNKTPHTATLRDRDSMRQIRAEISELPSIVQDLANGNITWADVEARYPLFEGQETGKKETIEE
notes: also called ABD; GST-GRS F4
In the case of B1, the binding result in experiment [2] is reported as “binds”.

B2: Fc-fused soluble cadherin-2 (extracellular domain of CDH2 fused to the Fc fragment of human IgG1) (Fc fusion, UniProt P19022 160-724, looked up)
chain: DWVIPPINLPENSRGPFPQELVRIRSDRDKNLSLRYSVTGPGADQPPTGIFIINPISGQLSVTKPLDREQIARFHLRAHAVDINGNQVENPIDIVINVIDMNDNRPEFLHQVWNGTVPEGSKPGTYVMTVTAIDADDPNALNGMLRYRIVSQAPSTPSPNMFTINNETGDIITVAAGLDREKVQQYTLIIQATDMEGNPTYGLSNTATAVITVTDVNDNPPEFTAMTFYGEVPENRVDIIVANLTVTDKDQPHTPAWNAVYRISGGDPTGRFAIQTDPNSNDGLVTVVKPIDFETNRMFVLTVAAENQVPLAKGIQHPPQSTATVSVTVIDVNENPYFAPNPKIIRQEEGLHAGTMLTTFTAQDPDRYMQQNIRYTKLSDPANWLKIDPVNGQITTIAVLDRESPNVKNNIYNATFLASDNGIPPMSGTGTLQIYLLDINDNAPQVLPQEAETCETPDPNSINITALDYDIDPNAGPFAFDLPLSPVTIKRNWTITRLNGDFAQLNLKIKFLEAGIYEVPIIITDSGNPPKSNISILRVKVCQCDSNGDCTDVDRIVGAGLGTGA
notes: extracellular domain; also called Fc-CDH2; not shown: Fc fragment of human IgG1
For B2, the binding result in experiment [3] is listed as “no binding (tested: 1 ug/ml (single concentration))”.
With B3, the Kd in experiment [4] came out at 3.4 nM.

The record behind these values is patent US20140220596A1 (MEDICINAL BIOCONVERGENCE RESEARCH CENTER, published 2014).
